Experimental data published in patent publication EP2918281A1 (Max-Planck-Gesellschaft zur Förderung der Wissenschaften …, dated 2015).

Target: HIV-1 protease (EC 3.4.23.16) (HIV-1)
Assay: cell-based or functional assay

B1: inhibitor 04 (other, not shown: small tags and cut ends)
chain: KMEGKSMLKLSHVLAFLLLASLFQSLMARDLISDGIEVLQLPVENEGESVFCPGKLSWPELVGMPAGYAKAIIEKENSIVHDVRLLLPGMVKPANYVCGRVFLVVDLKLIVQIPPSMG
IC50 (enzyme inhibition): 670 nM
